Assay results taken from US20090036365A1 (DYAX, published 2009).
Numbering of substitutions follows the chain as printed.

Assays:
human plasmin [1] = target: T1, human plasmin (human, UniProt P00747 97-810, limits assumed); assay: inhibition of plasmin hydrolysis of a fluorogenic substrate, tight-binding fit; measured Ki used as KD
T1 construct: also called plasmin-beads; plasmin-agarose beads

human plasmin [2] = target: T1, human plasmin; assay: binding of clonally pure display phage to plasmin relative to BPTI display phage
human plasmin [3] = target: T1, human plasmin; assay: display phage binding to protease beads
human plasmin [4] = target: T1, human plasmin; assay: display phage binding to immobilised protease
Thrombin = assay: display phage binding to immobilised protease
Kallikrein = assay: display phage binding to immobilised protease
Trypsin [5] = target: T2, Trypsin; assay: display phage binding to immobilised protease
T2 construct: also called trypsin-agarose beads

Trypsin [6] = target: T2, Trypsin; assay: display phage binding to immobilised trypsin, 2 washes
human plasmin [7] = target: T1, human plasmin; assay: inhibition of plasmin by soluble protein; measured Ki used as KD
human plasmin [8] = target: T1, human plasmin; assay: as above; remark: listed apart in the source
human plasmin [9] = target: T1, human plasmin; assay: preliminary plasmin inhibition test; measured Ki used as KD

T1 sequence (P00747 97-810 limits assumed): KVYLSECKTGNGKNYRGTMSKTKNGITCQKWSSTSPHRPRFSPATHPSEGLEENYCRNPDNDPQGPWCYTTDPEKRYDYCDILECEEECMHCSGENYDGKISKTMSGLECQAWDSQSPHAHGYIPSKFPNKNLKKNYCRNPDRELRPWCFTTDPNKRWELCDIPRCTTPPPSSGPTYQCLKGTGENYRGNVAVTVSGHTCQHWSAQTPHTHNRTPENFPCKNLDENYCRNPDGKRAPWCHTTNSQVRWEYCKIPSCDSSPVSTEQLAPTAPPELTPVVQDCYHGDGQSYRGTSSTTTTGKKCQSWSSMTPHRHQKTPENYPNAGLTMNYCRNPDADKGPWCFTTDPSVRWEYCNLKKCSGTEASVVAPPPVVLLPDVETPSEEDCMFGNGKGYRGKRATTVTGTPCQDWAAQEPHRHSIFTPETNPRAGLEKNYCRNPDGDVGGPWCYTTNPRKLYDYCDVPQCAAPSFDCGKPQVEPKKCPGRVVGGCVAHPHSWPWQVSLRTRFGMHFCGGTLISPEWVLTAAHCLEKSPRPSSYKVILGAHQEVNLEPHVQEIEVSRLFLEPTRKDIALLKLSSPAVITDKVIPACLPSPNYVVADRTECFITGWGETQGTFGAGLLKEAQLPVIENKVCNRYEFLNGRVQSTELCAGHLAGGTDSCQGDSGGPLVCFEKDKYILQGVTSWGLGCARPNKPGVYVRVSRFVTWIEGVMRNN
T2 sequence (P00760 24-246): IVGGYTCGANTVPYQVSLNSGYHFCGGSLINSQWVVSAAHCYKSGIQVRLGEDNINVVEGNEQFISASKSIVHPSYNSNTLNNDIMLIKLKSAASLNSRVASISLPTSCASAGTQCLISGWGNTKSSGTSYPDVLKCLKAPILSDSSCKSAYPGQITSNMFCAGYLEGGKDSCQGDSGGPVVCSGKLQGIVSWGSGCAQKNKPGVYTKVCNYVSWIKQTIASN
Sequence of Kallikrein (P03952 20-390, chain 1 of 2): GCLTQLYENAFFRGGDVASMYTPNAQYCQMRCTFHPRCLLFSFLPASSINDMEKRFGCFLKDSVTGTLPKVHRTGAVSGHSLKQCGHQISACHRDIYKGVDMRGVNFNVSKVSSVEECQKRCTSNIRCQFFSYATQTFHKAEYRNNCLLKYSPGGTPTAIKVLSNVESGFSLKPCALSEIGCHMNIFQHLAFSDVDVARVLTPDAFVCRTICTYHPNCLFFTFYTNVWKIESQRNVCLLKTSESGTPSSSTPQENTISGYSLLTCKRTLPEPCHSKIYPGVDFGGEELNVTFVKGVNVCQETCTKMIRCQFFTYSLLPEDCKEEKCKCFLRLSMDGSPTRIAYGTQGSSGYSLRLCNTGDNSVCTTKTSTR
Sequence of Kallikrein (P03952 391-638, chain 2 of 2): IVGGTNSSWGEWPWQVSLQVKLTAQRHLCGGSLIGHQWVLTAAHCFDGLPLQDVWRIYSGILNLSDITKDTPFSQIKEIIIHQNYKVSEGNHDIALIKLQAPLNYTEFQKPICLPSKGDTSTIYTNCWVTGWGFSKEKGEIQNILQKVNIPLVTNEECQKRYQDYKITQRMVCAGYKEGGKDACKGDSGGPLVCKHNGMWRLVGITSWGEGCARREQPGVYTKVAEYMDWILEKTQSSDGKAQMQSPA

B1: QS4, yeast-expressed soluble protein (designed binder)
chain: EAAEMHSFCAFKADDGPCKARFERFFFNIFTRQCEQFYYGGCDGNQNRFESLEECKKMCTRD
notes: Expressed in S. cerevisiae from a mat alpha fusion, purified on trypsin-agarose; also called QS4 variant
- Kd (human plasmin [1]): 2 nM

B2: SPI08 (designed binder)
chain: MHSFCAFKADGGPCRARFERFFFNIFTRQCEEFIYGGCEGNQNRFESLEECKKMCTRD
notes: also called isolate 08
- Phage Binding (relative to BPTI phage) (human plasmin [2]): 2.6 fold of BPTI phage

B3: QS4 displayed on gIIIp of M13 (designed binder)
chain: B2 chain with G11D, R15K, E32Q, I34Y, E39D
notes: also called phage that display the LACI-K1 derivative QS4
- fold binding to plasmin beads over other protease targets (human plasmin [3]): ≥ 50 fold
- relative binding (LACI-K1 phage = unit) (human plasmin [4]): 52 fold of LACI-K1 phage
- relative binding (LACI-K1 phage = unit) (Thrombin): 0.7 fold of LACI-K1 phage
- relative binding (LACI-K1 phage = unit) (Kallikrein): 0.9 fold of LACI-K1 phage
- relative binding (LACI-K1 phage = unit) (Trypsin [5]): 4.5 fold of LACI-K1 phage
- relative binding (LACI-K1 phage = unit) (Trypsin [6]): 0.5 fold of LACI-K1 phage

B4: SPI01 (designed binder)
chain: B2 chain with G11S, P13A, R17M, E19H
notes: 112 for the printed residues 10-21
- Phage Binding (relative to BPTI phage) (human plasmin [2]): 0.25 fold of BPTI phage

B5: SPI02 (designed binder)
chain: B2 chain with G11S, A16G
notes: 102 for the printed residues 10-21
- Phage Binding (relative to BPTI phage) (human plasmin [2]): 0.83 fold of BPTI phage

B6: SPI03 (designed binder)
chain: B2 chain with G11S, R15K, E19D, F21W
notes: 108 for the printed residues 10-21
- Phage Binding (relative to BPTI phage) (human plasmin [2]): 0.48 fold of BPTI phage

B7: SPI05 (designed binder)
chain: B2 chain with D10E, G11S, R17K, E19A
notes: 105 for the printed residues 10-21
- Phage Binding (relative to BPTI phage) (human plasmin [2]): 0.64 fold of BPTI phage

B8: SPI11 (Selected Plasmin Inhibitor#11) (designed binder)
chain: B2 chain with D10E, G11T, E19D, F21W
notes: also called isolate 11
- Phage Binding (relative to BPTI phage) (human plasmin [2]): 3.2 fold of BPTI phage
- Kd (human plasmin [7]): 0.088 nM
- Kd (human plasmin [8]): 0.088 nM

B9: SPI15 (designed binder)
chain: B2 chain with D10E, G11S, E19D, F21W
notes: 41 for the whole domain; 90 for the printed residues 10-21; also called SP115; isolate 15
- Phage Binding (relative to BPTI phage) (human plasmin [2]): 2.5 fold of BPTI phage

B10: SPI16 (designed binder)
chain: B2 chain with D10E, G11V, P13A, R15K, A16G, E19H, F21W
notes: 110 for the printed residues 10-21
- Phage Binding (relative to BPTI phage) (human plasmin [2]): 0.22 fold of BPTI phage

B11: SPI17 (designed binder)
chain: B2 chain with D10E, G11V, F18I, E19Q
notes: 104 for the printed residues 10-21
- Phage Binding (relative to BPTI phage) (human plasmin [2]): 0.09 fold of BPTI phage

B12: SPI21 (designed binder)
chain: B2 chain with G11S, P13A, R15K, A16G, R17K, F21W
notes: 116 for the printed residues 10-21
- Phage Binding (relative to BPTI phage) (human plasmin [2]): 0.38 fold of BPTI phage

B13: SPI22 (designed binder)
chain: B2 chain with R15K, A16G, R17K, E19P
notes: also called isolate 22
- Phage Binding (relative to BPTI phage) (human plasmin [2]): 2 fold of BPTI phage
- Kd (human plasmin [9]): > 2 nM

B14: SPI23 (designed binder)
chain: B2 chain with D10E, R17K, E19Q, F21W
notes: also called isolate 23
- Phage Binding (relative to BPTI phage) (human plasmin [2]): 1.25 fold of BPTI phage
- Kd (human plasmin [9]): ~0.5 nM

B15: SPI43 (designed binder)
chain: MHSFCAFKAETGPCRGKFDRWFFNIFTRQCESFHYGGCKGNQNRFESLEECKKMCTRD
- Kd (human plasmin [9]): > 4 nM

B16: SPI47 (designed binder)
chain: B2 chain with G11A, R17K
- Kd (human plasmin [9]): ~0.8 nM

B17: SPI51 (designed binder)
chain: B2 chain with G11A, R17K, E31T, E32A, I34F, E39G
- Kd (human plasmin [9]): ~0.5 nM

B18: SPI54 (designed binder)
chain: B2 chain with G11S, E19D, F21W, E31T, E32R, I34P, E39G
- Kd (human plasmin [9]): > 4 nM
